The values below come from paper doi:10.1101/739813 (bioRxiv, 2019).

Where no end group is shown, it is not given here.

The target of data set [1] is pRab8a(GTP): Rab8a (Q67L, residues 1-181) phosphorylated at T72, GTP-bound (UniProt P61006). Put plainly: ITC.
Data set [2] concerns the molecule itself. Put plainly: crystal structure.

UniProt P61006, sequence (P61006 1-181 Q67L): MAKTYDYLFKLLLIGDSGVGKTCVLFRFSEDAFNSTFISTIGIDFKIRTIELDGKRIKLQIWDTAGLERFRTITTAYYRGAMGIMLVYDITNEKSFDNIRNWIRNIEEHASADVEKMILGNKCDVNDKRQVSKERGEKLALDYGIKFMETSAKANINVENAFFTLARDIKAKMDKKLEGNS

With His6-NRPRFTLQELRDVLQERNKLKSQLLVVQEELQCYKSG (peptide, UniProt Q969X0 129-165, looked up) [His6-RILPL2, phospho-Rab binding domain of RILPL2 (residues 129-165)], in data set [1], the Kd is 3.3 µM. For the same molecule, the binding result in data set [2] is “binds”.

What is called Kd is the concentration at which binding is half-saturated. A low value points to tighter binding.
